{
  "source": "patent CN114409777A",
  "about": "(SHAANXI HISINOVEC SCIENCE AND TECH LIMITED COMPANY, dated 2022)",
  "binders": {"B1": {"name": "结直肠癌相关的抗脆弱拟杆菌毒素蛋白激活体的特异性纳米抗体Nb3.27 (VHH)", "VHH": "QVQLQESGGGLVQAGGSLRLSCTYSGQTFSAWAMGWFRQAPGKERETVATINWNGERTQYADAVKGRFTISRDNAKDTVYLEMNSLKPEDTAVYYCASMMGTYYSGSPKNWGQGTQVTVSS", "notes": "also called BFT-211纳米抗体; BFT1-sFL纳米抗体"}},
  "biological_target": "T1, 脆弱拟杆菌毒素BFT1全长蛋白(BFT1-sFL)，不含信号肽 (Bacteroides fragilis (产肠毒素脆弱拟杆菌, ETBF), UniProt P54355 26-405)",
  "T1 construct": "domain: 不含信号肽全长 (full length without signal peptide, pro domain kept); Recombinant protein from E. coli; This is not the processed catalytic domain alone: the pro domain is still present; also called BFT重组蛋白; BFT全长",
  "T1 sequence": "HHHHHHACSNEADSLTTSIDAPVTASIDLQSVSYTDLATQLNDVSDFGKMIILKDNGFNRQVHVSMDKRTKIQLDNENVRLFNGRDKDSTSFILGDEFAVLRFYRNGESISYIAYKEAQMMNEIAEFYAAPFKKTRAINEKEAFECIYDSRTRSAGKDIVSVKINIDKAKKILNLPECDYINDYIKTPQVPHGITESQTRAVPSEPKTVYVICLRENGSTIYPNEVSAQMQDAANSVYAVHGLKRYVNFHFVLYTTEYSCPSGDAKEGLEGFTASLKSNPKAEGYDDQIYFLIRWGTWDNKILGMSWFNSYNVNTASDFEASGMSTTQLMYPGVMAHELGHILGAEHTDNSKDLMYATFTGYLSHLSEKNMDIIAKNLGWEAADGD",
  "assay": "ITC (Microcal PEAQ-ITC), 20℃, nanobody about 20 μM, BFT1-sFL about 200 μM, 20mM Tris-HCl pH 8.0, 150mM NaCl, 5% glycerol",
  "data": [
    {"binder": "B1", "values": [
      {"measurement": "Kd", "result": 15.3, "unit": "nM"}
    ]}
  ]
}
